Article PMC8916002 (Proceedings of the National Academy of Sciences of the …, 2022)

Assays:
[1] = tested on: JPH1; experiment: Cocrystallization of JPH1 with phospholipids; format: binding, human; conditions: high ionic strength
[2] = biological target: T1, JPH2 (1 to 161, 275 to 437) (human, UniProt Q9BR39-1 1-161; Q9BR39-1 275-437); experiment: ITC
T1 chain (looked up): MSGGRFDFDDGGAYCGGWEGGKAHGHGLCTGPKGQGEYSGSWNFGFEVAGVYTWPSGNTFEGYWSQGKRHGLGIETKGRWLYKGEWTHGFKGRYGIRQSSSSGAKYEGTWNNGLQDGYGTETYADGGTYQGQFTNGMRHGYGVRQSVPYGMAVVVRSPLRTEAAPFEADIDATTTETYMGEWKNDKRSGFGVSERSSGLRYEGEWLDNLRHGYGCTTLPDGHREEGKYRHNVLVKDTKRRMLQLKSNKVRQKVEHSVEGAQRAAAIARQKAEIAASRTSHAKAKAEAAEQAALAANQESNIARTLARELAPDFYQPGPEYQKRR

[3] = biological target: T2, JPH1 (1 to 175, 265 to 442) (human, UniProt Q9HDC5 1-175; Q9HDC5 265-442); experiment: ITC
T2 chain (looked up): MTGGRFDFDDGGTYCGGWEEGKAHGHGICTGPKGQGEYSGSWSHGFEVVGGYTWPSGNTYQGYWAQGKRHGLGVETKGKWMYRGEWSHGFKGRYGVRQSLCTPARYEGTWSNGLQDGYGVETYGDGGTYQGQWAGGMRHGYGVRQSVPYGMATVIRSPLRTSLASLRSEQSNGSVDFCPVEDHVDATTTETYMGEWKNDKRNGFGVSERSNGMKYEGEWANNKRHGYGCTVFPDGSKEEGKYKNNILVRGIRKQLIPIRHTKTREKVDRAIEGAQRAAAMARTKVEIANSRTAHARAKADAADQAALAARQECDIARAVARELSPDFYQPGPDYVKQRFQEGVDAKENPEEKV

[4] = biological target: T3, MBP-tagged JPH2 (1 to 161, 275 to 437) (human, UniProt Q9BR39-1 1-161; Q9BR39-1 275-437); experiment: ITC
T3 chain (looked up): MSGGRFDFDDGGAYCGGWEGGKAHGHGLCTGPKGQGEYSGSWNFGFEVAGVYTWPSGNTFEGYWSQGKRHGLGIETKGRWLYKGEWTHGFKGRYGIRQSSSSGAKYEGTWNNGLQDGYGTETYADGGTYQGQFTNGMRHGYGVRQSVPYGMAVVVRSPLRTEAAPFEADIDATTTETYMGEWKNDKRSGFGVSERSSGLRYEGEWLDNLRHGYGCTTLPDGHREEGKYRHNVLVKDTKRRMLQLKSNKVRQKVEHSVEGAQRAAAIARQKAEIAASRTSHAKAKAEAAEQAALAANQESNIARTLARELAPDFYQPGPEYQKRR

## CCCCCC(=O)OC[C@H](COP(=O)(O)OC[C@H](N)C(=O)O)OC(=O)CCCCC [6:0 PS]
[1]; 2 mM 6:0 PS, diffraction data to 1.9 Å
  ligand electron density in JPH1 crystals: no significant difference density could be identified
[1]; 2 mM 6:0 PS, diffraction data to 1.9 Å, listed as PS
  ligand electron density in JPH1 crystals: could not observe any density for a bound ligand

## CCCCCCCC(=O)OC[C@H](COP(=O)(O)O[C@@H]1[C@H](O)[C@H](O)[C@@H](OP(=O)(O)O)[C@H](OP(=O)(O)O)[C@H]1O)OC(=O)CCCCCCC [8:0 PI(4,5)P2]
[1]; 500 μM 8:0 PI(4,5)P2, diffraction data to 2.0 Å
  ligand electron density in JPH1 crystals: no significant difference density could be identified

## EERIFRRTGGLFGQVD (peptide, UniProt P07293 1594-1609, looked up) [CaV1.1 peptide (rabbit CaV1.1 residues 1594 to 1609)]
[2]
  stoichiometry N: 1
[3]
  Kd: 1000 to 2000 nM
  stoichiometry N: 1
[4]
  Kd: 1800 nM
